Experimental data reported in the nanobody polyreactivity screen of Harvey et al. (2022).

Assay: yeast display, Sf9 membrane polyspecificity reagent, FACS + sequencing; frameworks hold sequencing errors
How it was run: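 After 36–48 hours of galactose induction, yeast (Saccharomyces cerevisiae BJ5465) displaying a synthetic nanobody library were stained at 4 °C for 1 hour with 10% biotinylated, detergent-solubilized Sf9 membrane reagent. Streptavidin microbeads enriched the stained cells before FACS sorting into low and high (top ~1%) gates on anti-HA and streptavidin fluorescence. Each clone's polyreactivity label reflects its gate of origin.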

**Q.** For “QVQLVESGGGLVQAGGSLRLSCAASGFIFRYYAMGWYRQAPGKERELVAAITRSGDNTYYADSVKGRFTISRDNAKNTVYLQMNSLKPEDTAVYYCAARDVQYQQALGGDYWGQGTQVTVSS”, which “polyreactivity (PSR sort gate)” value is on record?
**A.** low polyreactivity

**Q.** Which “polyreactivity (PSR sort gate)” value does the source give for “QVQLVESGGGLVQAGGSLRLSCAASGFIFRYYAMGWYRQAPGKERELVAAITSRGSSTYYADSVKGRFTISRDNAKNTVYLQMNSLKPEDTAVYYCAARLRGDYVRYYYWGQGTQVTVSS” here?
**A.** high polyreactivity

**Q.** For “QVQLVESGGGLVQAGGSLRLSCAASGFIFRYYAMGWYRQAPGTERELVAAISQSGGSTDYADSVKGRFTISRDTAKNTVYLQMNSLKPVDTAVYYCATRTPYTKRDYWGQGTQVTVSS”, which “polyreactivity (PSR sort gate)” value is on record?
**A.** high polyreactivity

**Q.** With “QVQLVESGGGLVQAGGSLRLSCAASGFIFRYYAMGWYRQATGKEREFVAVISSTTGSTYYADSVKGRFTISRDNAKNTVYLQMNSLKPEDTAVYYCAAASRRRRPLKRMDYWGQGTQVTVSS” as the sequence, how does the “polyreactivity (PSR sort gate)” value read?
**A.** low polyreactivity

**Q.** Which “polyreactivity (PSR sort gate)” value does the source give for “QVQLVESGGGLVQAGGSLRLSCAASGFIFRYYAMGWYRQEPGKERELFAAISSTGGSTSYADSVKGRFTISRDNAKNTVYLQMNSLKPEDTAVYYCAADYWIRRRTYGQLYRPYYYWGQGTQVTVSS” here?
**A.** high polyreactivity

**Q.** Which “polyreactivity (PSR sort gate)” value does the source give for “QVQLVESGGGLVQAGGSLRLSCAASGFIFRYYAMRWYRQAPGKERELVATITYGGTSTSYADSVKGRFTISRDNAKNTVYLQMNSLKPEDSAVYYCATDRVSRVRPFWNVWRSNYWGQGTQVTVSS” here?
**A.** high polyreactivity

**Q.** With “QVQLVESGGGLVQAGGSLRLSCAASGFIFSENAMGLYRPAPGKERELVAAISDAGGSTYYADSVKGRFTISRDNAKNTVYLQMNSLKPEDTAVYYCNAVYHPKGPSGYGYWGQGTQVTVSS” as the sequence, how does the “polyreactivity (PSR sort gate)” value read?
**A.** low polyreactivity

**Q.** For “QVQLVESGGGLVQAGGSLRLSCAASGFIFSFYVMGWYRQAPGKERELVAAISTSGASTYYADSVKGRFTISRDNAKNTVYLQMTSLKPEDTAVYYCNVVYRYGGYNYWGQGTQVTVSS”, which “polyreactivity (PSR sort gate)” value is on record?
**A.** high polyreactivity

**Q.** Which “polyreactivity (PSR sort gate)” value does the source give for “QVQLVESGGGLVQAGGSLRLSCAASGFIFSIYAMGWYRQAPGKERELVAAISKSGGRTYYADSVKGRFTISRDNAKNTVYLQMNSLKPEDTAVYYCAVDSYYKYDYWGQGTQVTVSS” here?
**A.** high polyreactivity

**Q.** With “QVQLVESGGGLVQAGGSLRLSCAASGFIFSIYAMGWYRQAPGKERELVAGIDNGGGTYYADSVKGRFTISRDNAKNTVYLQMNSLKPEDTAVYYCAADTYSIGELYDYWGQGTQVTVSS” as the sequence, how does the “polyreactivity (PSR sort gate)” value read?
**A.** low polyreactivity

**Q.** For “QVQLVESGGGLVQAGGSLRLSCAASGFIFSIYAMGWYRQAPGKERELVAGIDNGGGTYYADSVKGRFTISRDNAKNTVYLQMNSLKPEDTAVYYCDLGSTTMDYWGQGTQVTVSS”, which “polyreactivity (PSR sort gate)” value is on record?
**A.** low polyreactivity

**Q.** Which “polyreactivity (PSR sort gate)” value does the source give for “QVQLVESGGGLVQAGGSLRLSCAASGFIFSLYAMGRYRQATGKERELVAVITWSDGRTYYADSVKGRFTISRDNAKNTVYLQMNSLKPEDTAVYYCAAADWITEYDYWGQGTQVTVSS” here?
**A.** low polyreactivity

**Q.** With “QVQLVESGGGLVQAGGSLRLSCAASGFIFSLYAMGWYRQAPGKERELVAAISKRGGSTNYADSVKGRFTISRDNAKNNVYLQMNSLKPEDTAVYYCAKARPGFLYDHWGQGTQVTVSS” as the sequence, how does the “polyreactivity (PSR sort gate)” value read?
**A.** high polyreactivity

**Q.** Which “polyreactivity (PSR sort gate)” value does the source give for “QVQLVESGGGLVQAGGSLRLSCAASGFIFSNNAMGWYRQAPGKERELVAAISGRGGSTYYADSVKGRFTISRDNAKNTVYLQMNSLKPEDTAVYYCNALYTYSYSRFDYWGEGTQVTVSS” here?
**A.** low polyreactivity

**Q.** Which “polyreactivity (PSR sort gate)” value does the source give for “QVQLVESGGGLVQAGGSLRLSCAASGFIFSNNAMGWYRQAPGKERELVAAISKSGGGTSYADSVKGRFTISRDNAKNTVYLQMKSLNPEDSGVYYCAARFSQFRVDFWGQGTQVTVSS” here?
**A.** high polyreactivity

**Q.** With “QVQLVESGGGLVQAGGSLRLSCAASGFIFSRNAMGWYRHAPGKERELVAAISLRGGSTYYADSVKGRFTISRDNAKNTVYLQMNSLKPEDTAVYYCAAPLFSGYDYWGQGTQVTVSS” as the sequence, how does the “polyreactivity (PSR sort gate)” value read?
**A.** low polyreactivity

**Q.** With “QVQLVESGGGLVQAGGSLRLSCAASGFIFSRNAMGWYRQAPGKERELVAAISSGGGTDYADSVKGRFTISRDNAKNTVYLQMNSLQPEDTAVYYCAASYFPGWKHSLDDYWGQGTQVTVSS” as the sequence, how does the “polyreactivity (PSR sort gate)” value read?
**A.** low polyreactivity

**Q.** Which “polyreactivity (PSR sort gate)” value does the source give for “QVQLVESGGGLVQAGGSLRLSCAASGFIFSRNTMGWYRQAPGKERELVAAISRGGGSTYYADSVKGRFTISRDNAKNTVYLQMNSLKPEDTAVYYCNTRIVAAGRYDYWGQGTQVTVSS” here?
**A.** high polyreactivity

**Q.** For “QVQLVESGGGLVQAGGSLRLSCAASGFIFSRYAMGWYRQAPGKERELVAAISSRGGSTYYADSVKGRFTISRDNAKNTVYLQMNSLKPEDTAVYYCNVDPRYSLTPPMDYWGQGTQVTVSS”, which “polyreactivity (PSR sort gate)” value is on record?
**A.** high polyreactivity

**Q.** Which “polyreactivity (PSR sort gate)” value does the source give for “QVQLVESGGGLVQAGGSLRLSCAASGFIFSRYTMGWYRQAPGKERELVAAISRRGGNTYYADSVKGRFTISRDNGKNTVYLLMNSLKPEDTAVYYFAADSSYFKDEYWGQGTQVTVSS” here?
**A.** low polyreactivity

**Q.** For “QVQLVESGGGLVQAGGSLRLSCAASGFIFSRYVMGWYRQAPGKERELVAVISYRGGSTYYADSVKGRFTISRDNAKNTVYVQMNSLKPEDTAVYYCNADTIPDGEDRYDYWGHGTQVTVSS”, which “polyreactivity (PSR sort gate)” value is on record?
**A.** low polyreactivity

**Q.** For “QVQLVESGGGLVQAGGSLRLSCAASGFIFSSYAMGWYRQAPGKEREFVAVISTGGGSTYYADSVKGRFTLSRDNAKNTVYLQMISLKPEDTAVYYCAAKLYDSGGRYWYDYWGQGTQVTVSS”, which “polyreactivity (PSR sort gate)” value is on record?
**A.** high polyreactivity

**Q.** Which “polyreactivity (PSR sort gate)” value does the source give for “QVQLVESGGGLVQAGGSLRLSCAASGFIFSSYAMGWYRQAPGKERELVASTSRRAGRTYYADSVKGRFTISRDNAKNTVYVQMNSLKPEDSAVYYCAAEARVGYHFQILDYWGQGTQVTVSS” here?
**A.** high polyreactivity

**Q.** With “QVQLVESGGGLVQAGGSLRLSCAASGFIFSTYAMGWYRQAPGKERELVAAITRGGRTYYADSVKGRFTISRDNAKNTVYLQMNSLIPEDTAVYYCAVFVHGDYWGQGTQVTVSS” as the sequence, how does the “polyreactivity (PSR sort gate)” value read?
**A.** high polyreactivity

**Q.** For “QVQLVESGGGLVQAGGSLRLSCAASGFIFSWYAMGWYRQAPGKERELVAAINWSGDSTYYADSVKGRFTISRDNAKNTVYLQMNSLKPEDTAVYYCAADPSYWGDPYDYWGQGTQVTVSS”, which “polyreactivity (PSR sort gate)” value is on record?
**A.** high polyreactivity

**Q.** With “QVQLVESGGGLVQAGGSLRLSCAASGFIFSWYAMGWYRQAPGKERELVAAITSGGRTNYADSVKGRFTISRDNAKNTVYLQMNSLKPEDTAVYYCAAAFYPFWPRYTSDYWGQGTQVTVSS” as the sequence, how does the “polyreactivity (PSR sort gate)” value read?
**A.** high polyreactivity

**Q.** Which “polyreactivity (PSR sort gate)” value does the source give for “QVQLVESGGGLVQAGGSLRLSCAASGFIFSYNAMGWYRQAPGKERVLVAAISSRGGSTYYADSVMGRFTISRDNAKNTVYLQMNSLKPEDTGVSYCAVASRRVYTAPYDYWGQGTQVTVSS” here?
**A.** high polyreactivity

**Q.** With “QVQLVESGGGLVQAGGSLRLSCAASGFIFSYNAMGWYRTAPGTERELDAAISSSGGTTYYADSVKGRFTISRYNAKNTVYLQMNSLKPEDTAVYYCAADGRTYHHLDGGWYRYDYWGQGTQVTVSS” as the sequence, how does the “polyreactivity (PSR sort gate)” value read?
**A.** low polyreactivity

**Q.** For “QVQLVESGGGLVQAGGSLRLSCAASGFIFSYYAMGWYRQAPGKERELLAAISRNGGRTYYADSVKGRFTISRDNAKNTVYLQMNSLKPEDTAVYYCAATTYRTSSYIRYGSPKHDDYWGQGTQVTVSS”, which “polyreactivity (PSR sort gate)” value is on record?
**A.** high polyreactivity

**Q.** Which “polyreactivity (PSR sort gate)” value does the source give for “QVQLVESGGGLVQAGGSLRLSCAASGFIFSYYAMGWYRQAPGKERELVAAITSGGSTNYADSVKGRFTISRDNAKNTVYLQMNSLKPEDTAVFYCATAGSGGIGLFYSYDYWGQGTQVTVSS” here?
**A.** low polyreactivity

**Q.** With “QVQLVESGGGLVQAGGSLRLSCAASGFIFSYYAMGWYRQAPGKERELVATITRSGGRTYYADSVKGRFTISRDNAKNTVYLQMNSLKPEDTAVYYCAADYYYKDDSWGQGTQVTVSS” as the sequence, how does the “polyreactivity (PSR sort gate)” value read?
**A.** high polyreactivity

**Q.** For “QVQLVESGGGLVQAGGSLRLSCAASGFIFSYYVMGWYRQAPGKERELVAGISKRGGSTRYADSVKGRFTISRDNAKNTVYLQMNSLKPEDTAVYYCNRLPYLHFAGRLTNYDYWGQGTQVTVSS”, which “polyreactivity (PSR sort gate)” value is on record?
**A.** high polyreactivity

**Q.** With “QVQLVESGGGLVQAGGSLRLSCAASGFIFTDYAMGWYRQAPGKERELVAAISSGGRTYYADSVKGRFTISRDNAKNTVYLQMNSLKPEDTAVYYCARGGRAEGWGQGTQVTVSS” as the sequence, how does the “polyreactivity (PSR sort gate)” value read?
**A.** high polyreactivity

**Q.** Which “polyreactivity (PSR sort gate)” value does the source give for “QVQLVESGGGLVQAGGSLRLSCAASGFIFTGNVMGWYRQAPGKEREFVAAISRSGGNTYYADSVKGRFTISRDKAKNTVYLQMNSLKPEDTAVYYCAVPKHFVVSYDYWGQGTQVTVSS” here?
**A.** high polyreactivity

**Q.** With “QVQLVESGGGLVQAGGSLRLSCAASGFIFTKYVMGWYRQAPGKERELVAAISSGGGRTYYADSVKGRFTISRDNGKYTVYLQMNSQKPEDTAVYYCNIDDERGKLYYWGQGTQVTVSS” as the sequence, how does the “polyreactivity (PSR sort gate)” value read?
**A.** high polyreactivity

**Q.** Which “polyreactivity (PSR sort gate)” value does the source give for “QVQLVESGGGLVQAGGSLRLSCAASGFIFTLYAMGWYRQAPGKEREFVAAISWSDGSTTYADSVKGRFTISRDNAKNSVYSQMYSLKPEDTAVYYCADVTCSYIRGLVYHFYYWGQGTQVTVSS” here?
**A.** low polyreactivity

**Q.** For “QVQLVESGGGLVQAGGSLRLSCAASGFIFTLYAMGWYRQAPGKERELVADISFNSGNTYYADSVKGRFTISRDNAKNTVYLQMNSLIPEDTAVYYCAVDLYFVGDVYEGYLGGDYLGQGTQVTVSS”, which “polyreactivity (PSR sort gate)” value is on record?
**A.** low polyreactivity

**Q.** With “QVQLVESGGGLVQAGGSLRLSCAASGFIFTPYTKGWYRQATGKERELVAAITDGSSTYYADSVKGRFTISRDNAKNTVYLQMNSLKPEDTAVYYCNADTLTTTRRFNPYDYWGQGTQVTVSS” as the sequence, how does the “polyreactivity (PSR sort gate)” value read?
**A.** low polyreactivity

**Q.** Which “polyreactivity (PSR sort gate)” value does the source give for “QVQLVESGGGLVQAGGSLRLSCAASGFIFTQNAMGWYRQAPGKERELVARISRRGGSTYYADSVKGRFTISRDNAKNTVYLQMNSLKPEDTAVYYCAATINYPGPTRFVSGNHDYWGQGTQVTVSS” here?
**A.** high polyreactivity

**Q.** For “QVQLVESGGGLVQAGGSLRLSCAASGFIFTQYAMGWYRPAPGKEWELVAAITRSGGRTYYADSVKGRFTISRDNAKNTVYIQMNSLKPEDTAVYYCAVDTVTRTVLVYGDRNDSWGQGTQVTVSS”, which “polyreactivity (PSR sort gate)” value is on record?
**A.** high polyreactivity

**Q.** With “QVQLVESGGGLVQAGGSLRLSCAASGFIFTQYAMGWYRQAPGKERELVAGITSSGNTYYADSVKGRFTISRDNAKNTVYLQMNSLKPEDTAVYYCAARSYVRRFDGGYWGQGTQVTVSS” as the sequence, how does the “polyreactivity (PSR sort gate)” value read?
**A.** high polyreactivity
